Test results as given in the supplement of paper PMC9112550, “Optimization of the antimicrobial peptide Bac7 by deep mutational scanning” (BMC Biology, 2022).

System: Escherichia coli TOP10
Assay: shrunken log2 fold change of peptide-encoding DNA abundance (4.5 h post-induction vs induction); higher = less antimicrobial activity (less host growth inhibition)
Settings: time post-induction: 4.5 h; library: site-saturation at positions 5, 18, 19, 20
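Note: peptides expressed intracellularly from a pBAD plasmid library in pooled LB shake-flask culture, induced with 0.3% L-arabinose, DNA abundance read by NGS, three biological replicates, DESeq2 with apeglm shrinkage.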

| Sequence | shrunken log2 fold change |
| --- | --- |
| RRIRWRPPRLPRPRPRPSGCPRP | -0.0452 |
| RRIRDRPPRLPRPRPRPCTPPRP | -0.153 |
| RRIRSRPPRLPRPRPRPSPWPRP | -0.0643 |
| RRIRNRPPRLPRPRPRPFNWPRP | -0.123 |
| RRIRYRPPRLPRPRPRPMMYPRP | -0.00674 |
| RRIRNRPPRLPRPRPRPMLHPRP | -0.263 |
| RRIRYRPPRLPRPRPRPNCSPRP | -0.973 |
| RRIRERPPRLPRPRPRPILWPRP | -0.161 |
| RRIRYRPPRLPRPRPRPRGDPRP | 0.316 |
| RRIRERPPRLPRPRPRPGYLPRP | -0.426 |
| RRIRVRPPRLPRPRPRPIIYPRP | -0.475 |
| RRIRWRPPRLPRPRPRPSYPPRP | -0.254 |
| RRIRDRPPRLPRPRPRPRQYPRP | -0.332 |
| RRIRTRPPRLPRPRPRPCLTPRP | -0.319 |
| RRIRDRPPRLPRPRPRPPYNPRP | -0.395 |
| RRIRARPPRLPRPRPRPTADPRP | 0.83 |
| RRIRQRPPRLPRPRPRPTYRPRP | 0.06 |
| RRIRMRPPRLPRPRPRPIYKPRP | -0.0684 |
| RRIRWRPPRLPRPRPRPQIDPRP | -0.688 |
| RRIRARPPRLPRPRPRPEFSPRP | 1.27 |
| RRIRVRPPRLPRPRPRPYWRPRP | -0.323 |
| RRIRYRPPRLPRPRPRPTITPRP | -0.665 |
| RRIRQRPPRLPRPRPRPPNMPRP | -0.089 |
| RRIRERPPRLPRPRPRPMDFPRP | -0.0298 |
| RRIRWRPPRLPRPRPRPLFEPRP | 0.25 |

| Sequence | shrunken log2 fold change |
| --- | --- |
| RRIRHRPPRLPRPRPRPVEFPRP | -0.178 |
| RRIRYRPPRLPRPRPRPFGIPRP | -0.149 |
| RRIRVRPPRLPRPRPRPYFIPRP | -0.72 |
| RRIRPRPPRLPRPRPRPFSKPRP | -0.0785 |
| RRIRYRPPRLPRPRPRPPICPRP | -0.801 |
| RRIRIRPPRLPRPRPRPNVIPRP | -0.82 |
| RRIRSRPPRLPRPRPRPETPPRP | 1.01 |
| RRIRARPPRLPRPRPRPFIAPRP | 0.0626 |
| RRIRDRPPRLPRPRPRPHPTPRP | 0.0176 |
| RRIRTRPPRLPRPRPRPGYFPRP | -0.0719 |
| RRIRLRPPRLPRPRPRPCRLPRP | -0.286 |
| RRIRARPPRLPRPRPRPLQDPRP | 0.25 |
| RRIRQRPPRLPRPRPRPMAQPRP | 0.006 |
| RRIRLRPPRLPRPRPRPDVPPRP | -0.284 |
| RRIRYRPPRLPRPRPRPHFWPRP | -0.257 |
| RRIRARPPRLPRPRPRPINGPRP | -0.00875 |
| RRIRSRPPRLPRPRPRPRPAPRP | 0.467 |
| RRIRQRPPRLPRPRPRPNWKPRP | 0.135 |
| RRIRKRPPRLPRPRPRPQEDPRP | 0.0977 |
| RRIRWRPPRLPRPRPRPYHMPRP | -0.591 |
| RRIRQRPPRLPRPRPRPNIIPRP | -0.247 |
| RRIRQRPPRLPRPRPRPFTAPRP | -0.183 |
| RRIRDRPPRLPRPRPRPQISPRP | 0.141 |
| RRIRYRPPRLPRPRPRPSIKPRP | -0.952 |
| RRIRNRPPRLPRPRPRPTCIPRP | -0.0808 |
